The record followed here is article PMC11284679, “A designed ankyrin-repeat protein that targets Parkinson’s disease-associated LRRK2” (The Journal of Biological Chemistry, 2024).

The target in experiment [1] is LRRK2^RCKW (purified for cryo-EM from His6-Z-TEV-LRRK2^RCKW). Kind of experiment: mass photometry; Refeyn Two MP; LRRK2^RCKW alone or with a 2.5-fold excess of DARPin E11; 20 mM Hepes pH 7.4, 150 mM NaCl, 2.5 mM MgCl2, 5% glycerol, 20 μM GDP, 0.5 mM TCEP.
Experiment [2] has as its target T1, biotinylated LRRK2^RCKW (LRRK2 residues 1327 to 2527) (UniProt Q5S007 1327-2527, biotin (biotinylated; site not stated)).
T1 construct: Leucine rich repeat kinase 2 (LRRK2), C-terminal catalytic half with ROC GTPase, COR-A, COR-B, kinase and WD40 domains, residues 1327 to 2527; also called biotinylated LRRK2^RCKW protein; source: Sf9 (baculovirus, medium with 0.1 mM biotin), purified (Ni-NTA, TEV, Ni-NTA, S200 gel filtration); not shown: His6, N-terminal, cleaved
T1 sequence (looked up): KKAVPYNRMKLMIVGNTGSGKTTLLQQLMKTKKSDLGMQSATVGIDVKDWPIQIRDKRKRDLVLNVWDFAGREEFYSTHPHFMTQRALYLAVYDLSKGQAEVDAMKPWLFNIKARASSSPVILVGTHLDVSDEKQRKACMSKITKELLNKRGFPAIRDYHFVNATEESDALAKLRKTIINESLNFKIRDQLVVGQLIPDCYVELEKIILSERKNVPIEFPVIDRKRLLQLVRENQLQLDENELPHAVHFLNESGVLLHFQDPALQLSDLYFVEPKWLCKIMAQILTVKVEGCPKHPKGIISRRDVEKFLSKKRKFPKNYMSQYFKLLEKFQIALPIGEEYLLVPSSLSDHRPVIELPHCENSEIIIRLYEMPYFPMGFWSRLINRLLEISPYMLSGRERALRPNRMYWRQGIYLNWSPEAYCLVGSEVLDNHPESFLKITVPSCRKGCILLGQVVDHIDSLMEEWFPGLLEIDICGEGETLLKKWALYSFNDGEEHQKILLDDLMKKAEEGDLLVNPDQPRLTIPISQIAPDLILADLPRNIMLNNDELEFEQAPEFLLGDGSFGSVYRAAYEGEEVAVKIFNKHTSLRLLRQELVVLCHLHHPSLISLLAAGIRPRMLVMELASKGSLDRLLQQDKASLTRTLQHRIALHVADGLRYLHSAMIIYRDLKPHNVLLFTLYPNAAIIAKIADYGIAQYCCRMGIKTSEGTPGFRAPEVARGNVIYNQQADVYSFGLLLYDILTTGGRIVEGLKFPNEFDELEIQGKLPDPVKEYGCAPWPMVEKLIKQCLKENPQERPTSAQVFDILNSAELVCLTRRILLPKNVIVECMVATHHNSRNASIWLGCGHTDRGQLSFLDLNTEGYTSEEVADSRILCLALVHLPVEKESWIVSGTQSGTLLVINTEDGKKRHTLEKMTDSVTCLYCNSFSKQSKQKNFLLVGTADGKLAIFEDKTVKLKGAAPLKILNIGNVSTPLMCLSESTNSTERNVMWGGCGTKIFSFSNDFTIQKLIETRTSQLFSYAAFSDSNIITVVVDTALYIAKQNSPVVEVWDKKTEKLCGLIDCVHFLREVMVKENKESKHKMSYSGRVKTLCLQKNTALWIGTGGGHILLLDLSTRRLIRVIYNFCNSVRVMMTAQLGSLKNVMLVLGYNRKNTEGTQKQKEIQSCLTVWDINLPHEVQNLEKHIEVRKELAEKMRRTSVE
Kind of experiment: SPR; Biacore T200; 850 RU biotinylated LRRK2^RCKW on a streptavidin-coated Series S CM5 chip; DARPin E11 in the mobile phase, 30 μl/min; 20 mM Hepes pH 7.4, 150 mM NaCl, 0.5 mM TCEP, 20 μM GDP, 2.5 mM MgCl2; plateau values fitted to a Langmuir model. Particulars: both partners purified. In general terms: In SPR one partner is held on a chip, and binding of the other changes the refractive index at the surface.

Experiment [3] concerns the target T1, biotinylated LRRK2^RCKW (LRRK2 residues …). As to the kind of experiment: BLI; Octet Red96, 25 °C; biotinylated LRRK2^RCKW on streptavidin biosensors; DARPin E11 15 to 1000 nM; 50 mM Hepes pH 8.0, 150 mM NaCl, 10 mM MgCl2, 5% glycerol, 0.1% BSA, 0.05% Tween 20, 500 μM GDP; Req fitted to a Langmuir model. Particulars: both partners purified.

In general, stoichiometry N refers to the number of molecules, sites or subunits per partner or assembly. As a reminder, the Kd is the constant that tells how readily two partners part at equilibrium. A word on the koff: it is a measure of how fast the partners let go of each other. Read a low koff as a long-lived complex.

B1: DARPin E11 (designed binder)
chain: MRGSHHHHHHHHGSDLGKKLLEAARAGQDDEVRILMANGADVNATDEAGVTPLHLAADSGHLEIVEVLLKTGADVNAWDHYGFTPLHLAAHVGHLEIVEVLLKAGADVNAQDHAGWTPLHLAALYGHLEIVEVLLKHGADVNAQDMWGETPFDLAIDNGNEDIAEVLQKAAKLNDYKDDDDK
notes: Designed ankyrin-repeat protein selected by ribosome display against LRRK2^RCKW; also called 008-807-2362-H9; 8xHis-DARPin E11-3xFLAG; source: E. coli Rosetta, purified (Ni-NTA, SEC)
Regarding B1, the stoichiometry N in experiment [1] came to 1. Further, in experiment [2], binding was put at a Kd of 70 nM and the koff is roughly 0.005 s⁻¹. The Kd in experiment [3] came out at 11 nM.
